From patent US20210246166A1 (Bayer, published 2021)
Bridge positions count the residues as written; N and C are the ends. Square brackets hold non-standard residues; d marks the D form. Ends that are not written are not given here. Oic = O=C(O)[C@@H]1C[C@@H]2CCCC[C@@H]2N1; tBuAla = CC(C)(C)C[C@H](N)C(=O)O; 2Pal = N[C@@H](Cc1ccccn1)C(=O)O; Chg = N[C@H](C(=O)O)C1CCCCC1; PEG4 = NCCOCCOCCOCCOCCC(=O)O; Pen = CC(C)(S)[C@H](N)C(=O)O; Tranexamic = tranexamic acid; NMeC = CN[C@@H](CS)C(=O)O; NMeA = CN[C@@H](C)C(=O)O; Abu = CC[C@H](N)C(=O)O; Sar = CNCC(=O)O

T1: Recombinant human MASP1 enzyme (fragment corresponding to amino acids 297-699, C-terminal His Tag) (human, UniProt P48740 297-699)
T1 sequence: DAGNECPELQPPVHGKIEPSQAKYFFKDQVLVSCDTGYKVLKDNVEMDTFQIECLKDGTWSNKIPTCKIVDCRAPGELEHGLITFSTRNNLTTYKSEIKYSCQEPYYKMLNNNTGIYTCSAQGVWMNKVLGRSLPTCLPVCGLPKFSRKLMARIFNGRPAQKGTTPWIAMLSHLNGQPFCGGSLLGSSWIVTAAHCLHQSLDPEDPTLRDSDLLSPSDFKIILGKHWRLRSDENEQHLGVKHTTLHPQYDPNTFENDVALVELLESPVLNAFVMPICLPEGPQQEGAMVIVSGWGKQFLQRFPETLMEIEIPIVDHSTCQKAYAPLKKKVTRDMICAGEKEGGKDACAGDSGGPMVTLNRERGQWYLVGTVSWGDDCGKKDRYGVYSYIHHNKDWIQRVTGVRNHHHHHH


How the values were obtained:
[1] = molecular target: T1, Recombinant human MASP1 enzyme …; experiment: cell-based or functional assay
[2] = molecular target: Recombinant human MASP2 enzyme (fragment corresponding to amino acids 297-686, C-terminal His Tag) (human, UniProt O00187 297-686); experiment: cell-based or functional assay
Recombinant human MASP2 enzyme (fragment corresponding to amino acids 297-686, C-terminal His Tag), sequence (O00187 other isoform, or with tags, fused parts or gaps limits assumed): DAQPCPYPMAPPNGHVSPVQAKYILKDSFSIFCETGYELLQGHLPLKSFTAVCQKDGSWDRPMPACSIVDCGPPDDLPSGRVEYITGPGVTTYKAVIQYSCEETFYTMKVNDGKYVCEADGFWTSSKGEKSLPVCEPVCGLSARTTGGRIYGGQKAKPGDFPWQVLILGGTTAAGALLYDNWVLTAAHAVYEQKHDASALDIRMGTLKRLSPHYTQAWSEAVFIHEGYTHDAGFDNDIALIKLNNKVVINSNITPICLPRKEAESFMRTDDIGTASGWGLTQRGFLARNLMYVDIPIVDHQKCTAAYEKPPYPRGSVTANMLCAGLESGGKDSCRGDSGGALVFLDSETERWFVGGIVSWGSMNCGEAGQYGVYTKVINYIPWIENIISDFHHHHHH

Binder | human MASP1 IC50 [1] | human MASP2 IC50 [2]
AICSRS[tBuAla]P[Oic]I[NMeC]I-OH (disulfide 3-11; N-terminus assumed; SMILES CC[C@H](C)[C@H](NC(=O)[C@@H]1CSSC[C@H](NC(=O)[C@@H](NC(=O)[C@H](C)N)[C@@H](C)CC)C(=O)N[C@@H](CO)C(=O)N[C@@H](CCCNC(=N)N)C(=O)N[C@@H](CO)C(=O)N[C@@H](CC(C)(C)C)C(=O)N2CCC[C@H]2C(=O)N2[C@@H](C[C@@H]3CCCC[C@@H]32)C(=O)N[C@@H]([C@@H](C)CC)C(=O)N1C)C(=O)O) [AIC+SRS-((tBu)A)-P-(Oic)-I-((N-Me)C)+I-OH] | 4.4 nM | 850 nM
[Abu]ICSRSLPP[Chg]CIPD-NH2 (disulfide 3-11; N-terminus assumed; SMILES CC[C@H](N)C(=O)N[C@H](C(=O)N[C@H]1CSSC[C@@H](C(=O)N[C@H](C(=O)N2CCC[C@H]2C(=O)N[C@@H](CC(=O)O)C(N)=O)[C@@H](C)CC)NC(=O)[C@H](C2CCCCC2)NC(=O)[C@@H]2CCCN2C(=O)[C@@H]2CCCN2C(=O)[C@H](CC(C)C)NC(=O)[C@H](CO)NC(=O)[C@H](CCCNC(=N)N)NC(=O)[C@H](CO)NC1=O)[C@@H](C)CC) [(Abu)-IC+SRSLPP-(Chg)-C+IPD-NH2] | 4.25 nM | 52 nM
AICSRSLP[Oic]I[NMeC]IPD-NH2 (disulfide 3-11; N-terminus assumed; SMILES CC[C@H](C)[C@H](NC(=O)[C@H](C)N)C(=O)N[C@H]1CSSC[C@@H](C(=O)N[C@H](C(=O)N2CCC[C@H]2C(=O)N[C@@H](CC(=O)O)C(N)=O)[C@@H](C)CC)N(C)C(=O)[C@H]([C@@H](C)CC)NC(=O)[C@@H]2C[C@@H]3CCCC[C@@H]3N2C(=O)[C@@H]2CCCN2C(=O)[C@H](CC(C)C)NC(=O)[C@H](CO)NC(=O)[C@H](CCCNC(=N)N)NC(=O)[C@H](CO)NC1=O) [AIC+SRSLP-(Oic)-I-((N-Me)C)+IPD-NH2] | 4.8 nM | 245 nM
[NMeA]ICSRSLP[Oic]I[Pen]IPQ-OH (disulfide 3-11; N-terminus assumed; SMILES CC[C@H](C)[C@H](NC(=O)[C@H](C)NC)C(=O)N[C@H]1CSSC(C)(C)[C@@H](C(=O)N[C@H](C(=O)N2CCC[C@H]2C(=O)N[C@@H](CCC(N)=O)C(=O)O)[C@@H](C)CC)NC(=O)[C@H]([C@@H](C)CC)NC(=O)[C@@H]2C[C@@H]3CCCC[C@@H]3N2C(=O)[C@@H]2CCCN2C(=O)[C@H](CC(C)C)NC(=O)[C@H](CO)NC(=O)[C@H](CCCNC(=N)N)NC(=O)[C@H](CO)NC1=O) [((N-Me)A)-IC+SRSLP-(Oic)-I-(Pen)+IPQ-OH] | 4.4 nM | 170 nM
[2Pal]ICSRS[tBuAla]PPI[Pen]IPD-NH2 (disulfide 3-11; N-terminus assumed; SMILES CC[C@H](C)[C@H](NC(=O)[C@@H](N)Cc1ccccn1)C(=O)N[C@H]1CSSC(C)(C)[C@@H](C(=O)N[C@H](C(=O)N2CCC[C@H]2C(=O)N[C@@H](CC(=O)O)C(N)=O)[C@@H](C)CC)NC(=O)[C@H]([C@@H](C)CC)NC(=O)[C@@H]2CCCN2C(=O)[C@@H]2CCCN2C(=O)[C@H](CC(C)(C)C)NC(=O)[C@H](CO)NC(=O)[C@H](CCCNC(=N)N)NC(=O)[C@H](CO)NC1=O) [(2-Pal)-IC+SRS-((tBu)A)-PPI-(Pen)+IPD-NH2] | 4.4 nM | 68 nM
[(2S)‑2((Amino)-2-(tetrahydro-2H-pyran-4-yl))acetic acid]ICSRSLP[Oic]ICI-OH (disulfide 3-11) [((2S)-2[(Amino)-2-(tetrahydro-2H-pyran-4-yl)]acetic acid)-IC+SRSLP-(Oic)-IC+I-OH] | 4.7 nM | 200 nM
AICSRS[tBuAla]PP[(2S)‑2‑(Amino)‑2‑((1S,3S)-3-hydroxycyclohexyl)acetic acid][NMeC]IPD-NH2 (disulfide 3-11) [AIC+SRS-((tBu)A)-PP-((2S)-2-(Amino)-2-[(1S,3S)-3-hydroxycyclohexyl]acetic acid)-((N-Me)C)+IPD-NH2] | 4.7 nM | 1100 nM
AICSRS[tBuAla]PPI[Pen]IP[Tranexamic]-NH2 (disulfide 3-11) [AIC+SRS-((tBu)A)-PPI-(Pen)+IP-(Tranexamic)-NH2] | 4.3 nM | 30 nM
[Sar]ICSRSLP[Oic]I[Pen]IP-OH (disulfide 3-11; N-terminus assumed; SMILES CC[C@H](C)[C@H](NC(=O)CNC)C(=O)N[C@H]1CSSC(C)(C)[C@@H](C(=O)N[C@H](C(=O)N2CCC[C@H]2C(=O)O)[C@@H](C)CC)NC(=O)[C@H]([C@@H](C)CC)NC(=O)[C@@H]2C[C@@H]3CCCC[C@@H]3N2C(=O)[C@@H]2CCCN2C(=O)[C@H](CC(C)C)NC(=O)[C@H](CO)NC(=O)[C@H](CCCNC(=N)N)NC(=O)[C@H](CO)NC1=O) [((N-Me)G)-IC+SRSLP-(Oic)-I-(Pen)+IP-OH] | 4.2 nM | 230 nM
[Sar]ICSRSLP[Oic]I[Pen]IPE-NH2 (disulfide 3-11; N-terminus assumed; SMILES CC[C@H](C)[C@H](NC(=O)CNC)C(=O)N[C@H]1CSSC(C)(C)[C@@H](C(=O)N[C@H](C(=O)N2CCC[C@H]2C(=O)N[C@@H](CCC(=O)O)C(N)=O)[C@@H](C)CC)NC(=O)[C@H]([C@@H](C)CC)NC(=O)[C@@H]2C[C@@H]3CCCC[C@@H]3N2C(=O)[C@@H]2CCCN2C(=O)[C@H](CC(C)C)NC(=O)[C@H](CO)NC(=O)[C@H](CCCNC(=N)N)NC(=O)[C@H](CO)NC1=O) [((N-Me)G)-IC+SRSLP-(Oic)-I-(Pen)+IPE-NH2] | 4.3 nM | 200 nM
[Sar]ICSRS[tBuAla]PPI[Pen]IP[PEG4]-NH2 (disulfide 3-11; N-terminus assumed; SMILES CC[C@H](C)[C@H](NC(=O)CNC)C(=O)N[C@H]1CSSC(C)(C)[C@@H](C(=O)N[C@H](C(=O)N2CCC[C@H]2C(=O)NCCOCCOCCOCCOCCC(N)=O)[C@@H](C)CC)NC(=O)[C@H]([C@@H](C)CC)NC(=O)[C@@H]2CCCN2C(=O)[C@@H]2CCCN2C(=O)[C@H](CC(C)(C)C)NC(=O)[C@H](CO)NC(=O)[C@H](CCCNC(=N)N)NC(=O)[C@H](CO)NC1=O) [((N-Me)G)-IC+SRS-((tBu)A)-PPI-(Pen)+IP-(PEG3(16atoms))-NH2] | 4.35 nM | 65.5 nM

Now from value to binder:

human MASP1 IC50 [1] | human MASP2 IC50 [2] | Binder
4.5 nM | 68 nM | YICSRS[tBuAla]PPI[NMeC]I-NH2 (disulfide 3-11; N-terminus assumed; SMILES CC[C@H](C)[C@H](NC(=O)[C@@H]1CSSC[C@H](NC(=O)[C@@H](NC(=O)[C@@H](N)Cc2ccc(O)cc2)[C@@H](C)CC)C(=O)N[C@@H](CO)C(=O)N[C@@H](CCCNC(=N)N)C(=O)N[C@@H](CO)C(=O)N[C@@H](CC(C)(C)C)C(=O)N2CCC[C@H]2C(=O)N2CCC[C@H]2C(=O)N[C@@H]([C@@H](C)CC)C(=O)N1C)C(N)=O) [YIC+SRS-((tBu)A)-PPI-((N-Me)C)+I-NH2]
4.3 nM | 59 nM | [dA]ICSRSLP[Oic]I[Pen]IP-NH2 (disulfide 3-11; N-terminus assumed; SMILES CC[C@H](C)[C@H](NC(=O)[C@@H](C)N)C(=O)N[C@H]1CSSC(C)(C)[C@@H](C(=O)N[C@H](C(=O)N2CCC[C@H]2C(N)=O)[C@@H](C)CC)NC(=O)[C@H]([C@@H](C)CC)NC(=O)[C@@H]2C[C@@H]3CCCC[C@@H]3N2C(=O)[C@@H]2CCCN2C(=O)[C@H](CC(C)C)NC(=O)[C@H](CO)NC(=O)[C@H](CCCNC(=N)N)NC(=O)[C@H](CO)NC1=O) [aIC+SRSLP-(Oic)-I-(Pen)+IP-NH2]
4.5 nM | 170 nM | FICSRS[tBuAla]PPI[NMeC]I-NH2 (disulfide 3-11; N-terminus assumed; SMILES CC[C@H](C)[C@H](NC(=O)[C@@H]1CSSC[C@H](NC(=O)[C@@H](NC(=O)[C@@H](N)Cc2ccccc2)[C@@H](C)CC)C(=O)N[C@@H](CO)C(=O)N[C@@H](CCCNC(=N)N)C(=O)N[C@@H](CO)C(=O)N[C@@H](CC(C)(C)C)C(=O)N2CCC[C@H]2C(=O)N2CCC[C@H]2C(=O)N[C@@H]([C@@H](C)CC)C(=O)N1C)C(N)=O) [FIC+SRS-((tBu)A)-PPI-((N-Me)C)+I-NH2]
4.3 nM | 68 nM | AICSRSLPPI[Pen]IPD-NH2 (disulfide 3-11; N-terminus assumed; SMILES CC[C@H](C)[C@H](NC(=O)[C@H](C)N)C(=O)N[C@H]1CSSC(C)(C)[C@@H](C(=O)N[C@H](C(=O)N2CCC[C@H]2C(=O)N[C@@H](CC(=O)O)C(N)=O)[C@@H](C)CC)NC(=O)[C@H]([C@@H](C)CC)NC(=O)[C@@H]2CCCN2C(=O)[C@@H]2CCCN2C(=O)[C@H](CC(C)C)NC(=O)[C@H](CO)NC(=O)[C@H](CCCNC(=N)N)NC(=O)[C@H](CO)NC1=O) [AIC+SRSLPPI-(Pen)+IPD-NH2]
4.4 nM | 240 nM | AICSRS[tBuAla]P[(2S,3aS,6aS)‑Octahydrocyclopenta(b)pyrrole‑2‑carboxylic acid]I[NMeC]IPD-NH2 (disulfide 3-11)
